From patent publication US20240043505A1
Like-named read-outs stand apart in the source and are kept apart here.

B1: Nb17 (VHH)
VHH: HVQLVESGGGLVQAGGSLRLSCAASGSIFSSNAMSWYRQAPGKQRELVASITSGGNADYADSVKGRFTISRDKNTVYPEMSSLKPADTAVYYCHAVGQEASAYAPRAYWGQGTQVTVSS
B2: Nb21 (VHH)
VHH: QVQLVESGGGLVQAGGSLRLSCAVSGLGAHRVGWFRRAPGKEREFVAAIGANGGNTNYLDSVKGRFTISRDNAKNTIYLQMNSLKPQDTAVYYCAARDIETAEYTYWGQGTQVTVSS

Assays:
Conditions in all cases: remark: other sources report otherwise
[1] = molecular target: T1, SARS-CoV-2 spike receptor-binding domain (RBD) (SARS-CoV-2), P0DTC2
[2] = molecular target: T1, SARS-CoV-2 spike receptor-binding …; assay: indirect ELISA on coated RBD ('ELISA affinity')
N439K = molecular target: N439K
A475V = molecular target: A475V
Y453F = molecular target: Y453F
N501Y = molecular target: N501Y
K417N = molecular target: K417N
[3] = molecular target: T1, SARS-CoV-2 spike receptor-binding …; remark: listed apart in the source
[4] = molecular target: T1, SARS-CoV-2 spike receptor-binding …; assay: ELISA; the sheet does not name the coated protein, the legend paragraph 51 says RBD
[5] = molecular target: T1, SARS-CoV-2 spike receptor-binding …; assay: SPR (Biacore 3000), RBD immobilised
[6] = molecular target: T1, SARS-CoV-2 spike receptor-binding …; remark: listed apart in the source

Binder | EC50 (read off the curve) [1] [nM] | IC50 [2] [nM] | binding affinity fold change relative to RBD WT (N439K) [fold] | binding affinity fold change relative to RBD WT (A475V) [fold] | binding affinity fold change relative to RBD WT (Y453F) [fold] | binding affinity fold change relative to RBD WT (N501Y) [fold] | binding affinity fold change relative to RBD WT (K417N) [fold] | IC50 [3] [nM] | EC50 (read off the curve) [4] [nM] | Kd [5] [nM] | koff [5] [s⁻¹] | kon [5] [M⁻¹ s⁻¹] | EC50 (read off the curve) [6] [nM]
B1 | 1 | 0.45 | 1.33 | 1.16 | 1.61 | 1.5 | -1.2 | 0.69 |  |  |  |  | 
B2 |  | 0.3 | 1.18 | -1.31 | 1.04 | -2.83 | -1.43 | 0.42 | 5 | < 0.001 | < 1e-06 | 3.79e+06 | 1
